# T1: recombinant full-length human RAD51 (Bio Academia) (human, UniProt Q06609 1-339)
# T1 construct: human RAD51 recombinase, recombinant full-length protein; also called hRAD51; source: bought: Bio Academia
# T1 sequence (looked up): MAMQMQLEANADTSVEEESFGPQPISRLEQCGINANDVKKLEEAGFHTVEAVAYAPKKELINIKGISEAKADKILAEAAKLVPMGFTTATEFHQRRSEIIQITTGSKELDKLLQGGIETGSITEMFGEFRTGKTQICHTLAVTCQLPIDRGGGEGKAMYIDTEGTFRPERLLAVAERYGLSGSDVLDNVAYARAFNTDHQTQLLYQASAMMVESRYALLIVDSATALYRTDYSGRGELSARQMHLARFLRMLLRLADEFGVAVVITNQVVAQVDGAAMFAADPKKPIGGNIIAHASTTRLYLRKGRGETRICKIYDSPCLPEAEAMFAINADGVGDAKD
# Molecular target: T1, recombinant full-length human RAD51 …
# Test: pull-down; 300 nM GST-fused peptides with 53.6 nM hRAD51 in 50 mM Tris pH 8.0, 150 mM NaCl, 1 mM EDTA, 1 mM DTT, 4°C, 1 h; captured on glutathione sepharose 4B; western blot with anti-RAD51
# Conditions: both partners purified
row,binding result,Binder
1,binds,"GST-fused wild-type canine BRC3 (cBRC3) (aa 1410-1482) peptide (domain or fragment, UniProt Q8MKI9 1410-1482, looked up, BRC repeat 3 region of canine BRCA2, aa 1410-1482; also called GST-cBRC3; wild-type cBRC3; source: Rosetta II cells (pGEX6p-1), purified (glutathione sepharose 4B)) GQNIKDFDTFYLSFQTASRKNIRVSKESLNKARSLLNQKWTEEELNNFSDSLNSELLPGIDIKKTDISNHEVI"
2,binds,"GST-fused K1435R mutant canine BRC3 (aa 1410-1482) peptide (domain or fragment, UniProt Q8MKI9 1410-1482, looked up, BRC repeat 3 region of canine BRCA2, aa 1410-1482, with the mammary tumor-derived mutation K1435R; Mutation reported from canine mammary tumor samples; also called K1435R mutant cBRC3; GST-cBRC3 with the K1435R mutation; source: Rosetta II cells (pGEX6p-1), purified (glutathione sepharose 4B)) GQNIKDFDTFYLSFQTASRKNIRVSRESLNKARSLLNQKWTEEELNNFSDSLNSELLPGIDIKKTDISNHEVI"

# — article PMC3470543, “Effects of the Missense Mutations in Canine BRCA2 on BRC Repeat 3 Functions and Comparative Analyses between Canine and Human BRC Repeat 3” (PLoS ONE, 2012)
